In patent US20130225506A1 (POLYPHOR, published 2013):
Numbered stars: 1 amine (or outer) side, 2 acyl side, 3 side chain; on linkers, the order of the positions; unused ones are H or OH. Square brackets hold non-standard residues; d marks the D form. Primed or numbered codes have the meaning given here. Pro((4S)NHBz) = proline with (4S)-NHBz, O=C(N[C@H]1C[C@@H](C(=O)[*:2])N([*:1])C1)c1ccccc1; (4S)Hyp(Bn) = O=C([C@@H]1C[C@H](OCc2ccccc2)CN1[*:1])[*:2]; dPro(cis-4-NH2) = N[C@H]1CN[C@@H](C(=O)O)C1; dPro(4S-NH2) = N[C@@H]1CN[C@@H](C(=O)O)C1; Oic = O=C(O)[C@@H]1C[C@@H]2CCCC[C@@H]2N1; 1Nal = N[C@@H](Cc1cccc2ccccc12)C(=O)O; 2Nal = N[C@@H](Cc1ccc2ccccc2c1)C(=O)O; Pro(3S-OH) = O=C(O)[C@H]1NCC[C@@H]1O; hArg = N=C(N)NCCCC[C@H](N)C(=O)O; 3Pal = N[C@@H](Cc1cccnc1)C(=O)O; Tic = O=C(O)[C@@H]1Cc2ccccc2CN1; d3Pal = N[C@H](Cc1cccnc1)C(=O)O; dHyp = O=C(O)[C@H]1C[C@H](O)CN1; Cha = N[C@@H](CC1CCCCC1)C(=O)O; Chg = N[C@H](C(=O)O)C1CCCCC1; dOrn = NCCC[C@@H](N)C(=O)O; dDab = NCC[C@@H](N)C(=O)O; Nle = CCCC[C@H](N)C(=O)O; dPip′ = not defined here; Dab = NCC[C@H](N)C(=O)O; Abu = CC[C@H](N)C(=O)O; Mor = not defined here

B1: cyclo(-Val-^DArg-Arg-Trp-^DPro-Thr-) (peptide)
peptide: cyclo(V[dR]RW[dP]T)
SMILES: CC(C)[C@@H]1NC(=O)[C@H]([C@@H](C)O)NC(=O)[C@H]2CCCN2C(=O)[C@H](Cc2c[nH]c3ccccc23)NC(=O)[C@H](CCCNC(=N)N)NC(=O)[C@@H](CCCNC(=N)N)NC1=O
B2: cyclo(-Ile-^DArg-Arg-Phe-^DPro-Thr-) (peptide)
peptide: cyclo(I[dR]RF[dP]T)
SMILES: CC[C@H](C)[C@@H]1NC(=O)[C@H]([C@@H](C)O)NC(=O)[C@H]2CCCN2C(=O)[C@H](Cc2ccccc2)NC(=O)[C@H](CCCNC(=N)N)NC(=O)[C@@H](CCCNC(=N)N)NC1=O
B3: cyclo(-Ile-^DArg-Dab-Trp-^DPro-Thr-) (peptide)
peptide: cyclo(I[dR][Dab]W[dP]T)
SMILES: CC[C@H](C)[C@@H]1NC(=O)[C@H]([C@@H](C)O)NC(=O)[C@H]2CCCN2C(=O)[C@H](Cc2c[nH]c3ccccc23)NC(=O)[C@H](CCN)NC(=O)[C@@H](CCCNC(=N)N)NC1=O
B4: cyclo(-Ile-^DArg-Arg-Trp-^DPro((4R)NH2)-Thr-) (peptide)
peptide: cyclo(I[dR]RW[dPro(cis-4-NH2)]T)
SMILES: CC[C@H](C)[C@@H]1NC(=O)[C@H]([C@@H](C)O)NC(=O)[C@H]2C[C@@H](N)CN2C(=O)[C@H](Cc2c[nH]c3ccccc23)NC(=O)[C@H](CCCNC(=N)N)NC(=O)[C@@H](CCCNC(=N)N)NC1=O
B5: cyclo(-Trp-^DPhe-Trp-Arg-^DPro((4R)NH2)-(4S)-Hyp(Bn)-) (peptide)
peptide: cyclo(W[dF]WR[dPro(cis-4-NH2)][(4S)Hyp(Bn)])
SMILES: N=C(N)NCCC[C@@H]1NC(=O)[C@H](Cc2c[nH]c3ccccc23)NC(=O)[C@@H](Cc2ccccc2)NC(=O)[C@H](Cc2c[nH]c3ccccc23)NC(=O)[C@@H]2C[C@H](OCc3ccccc3)CN2C(=O)[C@H]2C[C@@H](N)CN2C1=O
B6: cyclo(-Ile-^DArg-Arg-2Nal-^DPro-Pro((3S)OH)-) (peptide)
peptide: cyclo(I[dR]R[2Nal][dP][Pro(3S-OH)])
SMILES: CC[C@H](C)[C@@H]1NC(=O)[C@@H]2[C@@H](O)CCN2C(=O)[C@H]2CCCN2C(=O)[C@H](Cc2ccc3ccccc3c2)NC(=O)[C@H](CCCNC(=N)N)NC(=O)[C@@H](CCCNC(=N)N)NC1=O
B7: cyclo(-Trp-^DPhe-Trp-Arg-^DPro((4S)OH)-(4S)-Hyp(Bn)-) (peptide)
peptide: cyclo(W[dF]WR[dHyp][(4S)Hyp(Bn)])
SMILES: N=C(N)NCCC[C@@H]1NC(=O)[C@H](Cc2c[nH]c3ccccc23)NC(=O)[C@@H](Cc2ccccc2)NC(=O)[C@H](Cc2c[nH]c3ccccc23)NC(=O)[C@@H]2C[C@H](OCc3ccccc3)CN2C(=O)[C@H]2C[C@H](O)CN2C1=O
B8: cyclo(-Arg-^DPhe-Trp-Arg-^DPro((4R)NH2)-Oic-) (peptide)
peptide: cyclo(R[dF]WR[dPro(cis-4-NH2)][Oic])
SMILES: N=C(N)NCCC[C@@H]1NC(=O)[C@@H]2C[C@@H]3CCCC[C@@H]3N2C(=O)[C@H]2C[C@@H](N)CN2C(=O)[C@H](CCCNC(=N)N)NC(=O)[C@H](Cc2c[nH]c3ccccc23)NC(=O)[C@@H](Cc2ccccc2)NC1=O
B9: cyclo(-Trp-^DPhe-Trp-Arg-^DPro((4R)NH2)-Oic-) (peptide)
peptide: cyclo(W[dF]WR[dPro(cis-4-NH2)][Oic])
SMILES: N=C(N)NCCC[C@@H]1NC(=O)[C@H](Cc2c[nH]c3ccccc23)NC(=O)[C@@H](Cc2ccccc2)NC(=O)[C@H](Cc2c[nH]c3ccccc23)NC(=O)[C@@H]2C[C@@H]3CCCC[C@@H]3N2C(=O)[C@H]2C[C@@H](N)CN2C1=O
B10: cyclo(-Arg-^DPhe-Trp-Arg-^DPro((4S)NH2)-Tic-) (peptide)
peptide: cyclo(R[dF]WR[dPro(4S-NH2)][Tic])
SMILES: N=C(N)NCCC[C@@H]1NC(=O)[C@@H]2Cc3ccccc3CN2C(=O)[C@H]2C[C@H](N)CN2C(=O)[C@H](CCCNC(=N)N)NC(=O)[C@H](Cc2c[nH]c3ccccc23)NC(=O)[C@@H](Cc2ccccc2)NC1=O
B11: cyclo(-Cha-^DArg-Arg-Trp-^DPro-Thr-) (peptide)
peptide: cyclo([Cha][dR]RW[dP]T)
SMILES: C[C@@H](O)[C@@H]1NC(=O)[C@H]2CCCN2C(=O)[C@H](Cc2c[nH]c3ccccc23)NC(=O)[C@H](CCCNC(=N)N)NC(=O)[C@@H](CCCNC(=N)N)NC(=O)[C@H](CC2CCCCC2)NC1=O
B12: cyclo(-Ile-^DDab-Arg-Trp-^DPro-Thr-) (peptide)
peptide: cyclo(I[dDab]RW[dP]T)
SMILES: CC[C@H](C)[C@@H]1NC(=O)[C@H]([C@@H](C)O)NC(=O)[C@H]2CCCN2C(=O)[C@H](Cc2c[nH]c3ccccc23)NC(=O)[C@H](CCCNC(=N)N)NC(=O)[C@@H](CCN)NC1=O
B13: cyclo(-3Pal-^DPhe-Trp-Arg-^DPro((4R)NH2)-Tic-) (peptide)
peptide: cyclo([3Pal][dF]WR[dPro(cis-4-NH2)][Tic])
SMILES: N=C(N)NCCC[C@@H]1NC(=O)[C@H](Cc2c[nH]c3ccccc23)NC(=O)[C@@H](Cc2ccccc2)NC(=O)[C@H](Cc2cccnc2)NC(=O)[C@@H]2Cc3ccccc3CN2C(=O)[C@H]2C[C@@H](N)CN2C1=O
B14: cyclo(-Trp-^D3Pal-Trp-Arg-^DPro((4R)NH2)-Tic-) (peptide)
peptide: cyclo(W[d3Pal]WR[dPro(cis-4-NH2)][Tic])
SMILES: N=C(N)NCCC[C@@H]1NC(=O)[C@H](Cc2c[nH]c3ccccc23)NC(=O)[C@@H](Cc2cccnc2)NC(=O)[C@H](Cc2c[nH]c3ccccc23)NC(=O)[C@@H]2Cc3ccccc3CN2C(=O)[C@H]2C[C@@H](N)CN2C1=O
B15: cyclo(-Arg-^DPhe-Trp-Arg-^DPro-(4S)-Hyp(Bn)-) (peptide)
peptide: cyclo(R[dF]WR[dP][(4S)Hyp(Bn)])
SMILES: N=C(N)NCCC[C@@H]1NC(=O)[C@@H]2C[C@H](OCc3ccccc3)CN2C(=O)[C@H]2CCCN2C(=O)[C@H](CCCNC(=N)N)NC(=O)[C@H](Cc2c[nH]c3ccccc23)NC(=O)[C@@H](Cc2ccccc2)NC1=O
B16: cyclo(-Ile-^DOrn-Arg-Trp-^DPro-Thr-) (peptide)
peptide: cyclo(I[dOrn]RW[dP]T)
SMILES: CC[C@H](C)[C@@H]1NC(=O)[C@H]([C@@H](C)O)NC(=O)[C@H]2CCCN2C(=O)[C@H](Cc2c[nH]c3ccccc23)NC(=O)[C@H](CCCNC(=N)N)NC(=O)[C@@H](CCCN)NC1=O
B17: cyclo(-Abu-^DArg-Arg-Trp-^DPro-Thr-) (peptide)
peptide: cyclo([Abu][dR]RW[dP]T)
SMILES: CC[C@@H]1NC(=O)[C@H]([C@@H](C)O)NC(=O)[C@H]2CCCN2C(=O)[C@H](Cc2c[nH]c3ccccc23)NC(=O)[C@H](CCCNC(=N)N)NC(=O)[C@@H](CCCNC(=N)N)NC1=O
B18: cyclo(-Arg-^DPhe-Trp-hArg-^DPro((4R)NH2)-Tic-) (peptide)
peptide: cyclo(R[dF]W[hArg][dPro(cis-4-NH2)][Tic])
SMILES: N=C(N)NCCCC[C@@H]1NC(=O)[C@H](Cc2c[nH]c3ccccc23)NC(=O)[C@@H](Cc2ccccc2)NC(=O)[C@H](CCCNC(=N)N)NC(=O)[C@@H]2Cc3ccccc3CN2C(=O)[C@H]2C[C@@H](N)CN2C1=O
B19: cyclo(-Nle-^DArg-Arg-Trp-^DPro-Thr-) (peptide)
peptide: cyclo([Nle][dR]RW[dP]T)
SMILES: CCCC[C@@H]1NC(=O)[C@H]([C@@H](C)O)NC(=O)[C@H]2CCCN2C(=O)[C@H](Cc2c[nH]c3ccccc23)NC(=O)[C@H](CCCNC(=N)N)NC(=O)[C@@H](CCCNC(=N)N)NC1=O
B20: cyclo(-Leu-^DArg-Arg-Trp-^DPro-Thr-) (peptide)
peptide: cyclo(L[dR]RW[dP]T)
SMILES: CC(C)C[C@@H]1NC(=O)[C@H]([C@@H](C)O)NC(=O)[C@H]2CCCN2C(=O)[C@H](Cc2c[nH]c3ccccc23)NC(=O)[C@H](CCCNC(=N)N)NC(=O)[C@@H](CCCNC(=N)N)NC1=O
B21: cyclo(-Chg-^DArg-Arg-Trp-^DPro-Thr-) (peptide)
peptide: cyclo([Chg][dR]RW[dP]T)
SMILES: C[C@@H](O)[C@@H]1NC(=O)[C@H]2CCCN2C(=O)[C@H](Cc2c[nH]c3ccccc23)NC(=O)[C@H](CCCNC(=N)N)NC(=O)[C@@H](CCCNC(=N)N)NC(=O)[C@H](C2CCCCC2)NC1=O
B22: cyclo(-1Nal-^DArg-Arg-Trp-^DPro-Pro((3S)OH)-) (peptide)
peptide: cyclo([1Nal][dR]RW[dP][Pro(3S-OH)])
SMILES: N=C(N)NCCC[C@@H]1NC(=O)[C@@H](CCCNC(=N)N)NC(=O)[C@H](Cc2cccc3ccccc23)NC(=O)[C@@H]2[C@@H](O)CCN2C(=O)[C@H]2CCCN2C(=O)[C@H](Cc2c[nH]c3ccccc23)NC1=O
B23: cyclo(-His-^DTrp-His-Trp-^DPro-Pro((4S)NHBz)-) (peptide)
peptide: cyclo(H[dW]HW[dP][Pro((4S)NHBz)])
SMILES: O=C(N[C@H]1C[C@H]2C(=O)N[C@@H](Cc3c[nH]cn3)C(=O)N[C@H](Cc3c[nH]c4ccccc34)C(=O)N[C@@H](Cc3c[nH]cn3)C(=O)N[C@@H](Cc3c[nH]c4ccccc34)C(=O)N3CCC[C@@H]3C(=O)N2C1)c1ccccc1

Biological target: chemokine receptor CXCR7 (UniProt P25106 1-362, limits assumed)
Sequence (P25106 whole entry): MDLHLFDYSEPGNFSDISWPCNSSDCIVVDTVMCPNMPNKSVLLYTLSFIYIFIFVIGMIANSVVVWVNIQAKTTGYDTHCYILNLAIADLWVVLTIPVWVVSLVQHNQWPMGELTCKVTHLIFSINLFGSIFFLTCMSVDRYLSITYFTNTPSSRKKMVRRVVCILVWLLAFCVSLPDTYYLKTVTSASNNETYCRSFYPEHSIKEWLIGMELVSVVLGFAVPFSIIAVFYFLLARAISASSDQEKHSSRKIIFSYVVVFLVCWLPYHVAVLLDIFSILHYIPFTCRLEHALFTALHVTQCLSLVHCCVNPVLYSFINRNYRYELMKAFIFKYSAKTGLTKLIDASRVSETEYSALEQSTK
Assay: cell-based or functional assay

| Binder | β-Arrestin EC50 |
| --- | --- |
| B1 | 271 nM |
| B2 | 46.4 nM |
| cyclo(W[dF]WR[dP][Pro((4S)NH2)]) [cyclo(-Trp-^DPhe-Trp-Arg-^DPro-Pro((4S)NH2)-)] | 36.9 nM |
| B3 | 87 nM |
| B4 | 948 nM |
| B5 | 6.6 nM |
| B6 | 76.8 nM |
| cyclo(I[dR]RW[dHyp]T) (not fully specified) [cyclo(-Ile-^DArg-Arg-Trp-^DPro((4S)OH)-Thr-)] | 632 nM |
| cyclo(W[dF]WR[dP][Mor]) (reading uncertain; also: printed as cyclo(-Trp-^DPhe-Trp-Arg-^DPro-Mor-)) [cyclo(-Trp-^DPhe-Trp-Arg-^DPro-Mor-)] | 132 nM |
| B7 | 7.6 nM |
| B8 | 20.5 nM |
| B9 | 20.9 nM |
| B10 | 13.1 nM |
| B11 | 37.7 nM |
| cyclo(W[dF]WR[dP][Pro((4R)NH2)]) [cyclo(-Trp-^DPhe-Trp-Arg-^DPro-Pro((4R)NH2)-)] | 26.9 nM |
| B12 | 48.4 nM |
| B13 | 5.1 nM |
| B14 | 6.1 nM |
| cyclo(W[dF]WR[dP][Pro((4S)F)]) [cyclo(-Trp-^DPhe-Trp-Arg-^DPro-Pro((4S)F)-)] | 119 nM |
| cyclo(I[dR]RW[dPip′][Pro(3S-OH)]) [cyclo(-Ile-^DArg-Arg-Trp-^DPip-Pro((3S)OH)-)] | 8.2 nM |
| B15 | 76.9 nM |
| B16 | 23.3 nM |
| B17 | 330 nM |
| B18 | 352 nM |
| B19 | 2.8 nM |
| B20 | 5.3 nM |
| B21 | 6.7 nM |
| B22 | 13.7 nM |
| B23 | 414 nM |
